Paper PMC6337304, “Site-directed Mutagenesis of a β-Glycoside Hydrolase from Lentinula edodes” (Molecules, 2018)

System: [H][C@]12[C@H](OC(=O)c3ccccc3)[C@]3(O)C[C@H](OC(=O)[C@H](O)[C@@H](NC(=O)c4ccccc4)c4ccccc4)C(C)=C([C@@H](O)C(=O)[C@]1(C)[C@@H](O[C@@H]1OC[C@@H](O)[C@H](O)[C@H]1O)C[C@@]1([H])OC[C@@]21OC(C)=O)C3(C)C
Assay: HPLC of 10-deacetyltaxol formation, Michaelis-Menten nonlinear fit
Assay type: biochemical, Lentinula edodes
Conditions: XDT 0.039–5.0 mmol/L; other conditions as in earlier report
Excerpt: HPLC of 10-deacetyltaxol formation, Michaelis-Menten nonlinear fit on LXYL-P1−1

Substance | Km | Vmax [µM/min] | kcat [s⁻¹] | kcat/Km [M⁻¹ s⁻¹]
LXYL-P1−1 (Lentinula edodes) | 0.50 (±0.01) mM | 3.42 | 2.05 ± 0.02 | 4100
LXYL-P1−1 (Lentinula edodes; I368E) | 0.42 (±0.01) mM | 4.02 | 2.41 ± 0.08 | 5740
LXYL-P1−1 (Lentinula edodes; I368E/V91S) | 0.20 (±0.01) mM | 3.43 | 2.06 ± 0.01 | –
LXYL-P1−1 (Lentinula edodes; I368T) | 0.35 (±0.10) mM | 2.6 | 1.56 ± 0.34 | 4460
